Test results from publication PMC7497807.

What was measured:
Test in all cases: fluorescence polarisation
BCOR (aa 1176–1225)-FITC = BCOR (aa 1176–1225)-FITC (UniProt Q6W2J9)
FITC-CBX8 A335V peptide = target: FITC-CBX8 A335V peptide
MBP-AF9 = target: MBP-AF9

Chain of BCOR (aa 1176–1225)-FITC (Q6W2J9 1176-1225): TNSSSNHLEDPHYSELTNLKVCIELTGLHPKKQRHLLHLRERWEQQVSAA

Substance | Kd (BCOR (aa 1176–1225)-FITC) [nM] | Kd (FITC-CBX8 A335V peptide) [nM] | IC50 (MBP-AF9) [nM]
MBP-AF9 (domain or fragment) | 18 | 12 | 
unlabeled CBX8 A335V peptide |  |  | 96
